The source of these data is paper PMC9784577, “Cross-Feeding and Enzymatic Catabolism for Mannan-Oligosaccharide Utilization by the Butyrate-Producing Gut Bacterium Roseburia hominis A2-183” (Microorganisms, 2022).

The target in assay [1] is α-galactosidase RhGal36A (Roseburia hominis A2-183). The assay is described as follows: native gel or EMSA; native-PAGE on 4-15% Mini-PROTEAN TGX precast gels, 30 min at 150 V, Native PAGE marker; size of the oligomer from the band's apparent mass against the monomer's mass.
Assay [2] deals with β-1,4 mannan-oligosaccharide phosphorylase RhMOP130A (Roseburia hominis A2-183). Described as above.

Turning to α-galactosidase RhGal36A (enzyme), in assay [1], the stoichiometry N (as a rule, a count of units in the complex or per binding partner) was 4.

Consider “β-1,4 mannan-oligosaccharide phosphorylase RhMOP130A (enzyme)”, for which the stoichiometry N in assay [2] was determined as 6.
